B1: Tumor necrosis factor ligand superfamily member 14 (Homo sapiens), O43557 (parent)
chain: MEESVVRPSVFVVDGQTDIPFTRLGRSHRRQSCSVARVGLGLLLLLMGAGLAVQGWFLLQLHWRLGEMVTRLPDGPAGSWEQLIQERRSHEVNPAAHLTGANSSLTGSGGPLLWETQLGLAFLRGLSYHDGALVVTKAGYYYIYSKVQLGGVGCPLGLASTITHGLYKRTPRYPEELELLVSQQSPCGRATSSSRVWWDSSFLGGVVHLEAGEKVVVRVLDERLVRLRDGTRSYFGAFMV

Variants of: B1
Conditions: with tnr3_mouse Ltbr

Variant | effect of a mutation on the interaction
A138T;S160G;D221G;E222K | causing an interaction

— IntAct's records for PubMed 26977880
